# According to article PMC2441792:
# Tests used:
# [1] = target: δ2K36A (Walker A mutant of protein δ) (Streptococcus pyogenes (plasmid pSM19035)); assay: SEC + cross-linking
# [2] = target: protein δ (ParA-Ib type Walker-box ATPase) of plasmid pSM19035, wild type (Streptococcus pyogenes (plasmid pSM19035)); assay: SEC + cross-linking
Substance,stoichiometry N [1],stoichiometry N [2]
δ2K36A (Walker A mutant of protein δ) (enzyme),2,
"protein δ (ParA-Ib type Walker-box ATPase) of plasmid pSM19035, wild type (enzyme)",,2
